From US20260317399 (published 2026) come the findings set out here.

What is called Kd is the free concentration of one partner at which half of the binding sites on the other are occupied at equilibrium, for simple one-to-one binding. Low readings indicate higher affinity, high ones lower affinity.

Read-outs that look alike come from different tables or passages of the source.

Experiment in all cases: SPR
In test [1] the target is T1, FcgRIIIaV (human, UniProt P08637).
Test [2] has as its target T1, FcgRIIIaV. The source holds these as a separate data set.
The target of test [3] is T2, FcgRIIaH (human, UniProt P12318).
T2 chain: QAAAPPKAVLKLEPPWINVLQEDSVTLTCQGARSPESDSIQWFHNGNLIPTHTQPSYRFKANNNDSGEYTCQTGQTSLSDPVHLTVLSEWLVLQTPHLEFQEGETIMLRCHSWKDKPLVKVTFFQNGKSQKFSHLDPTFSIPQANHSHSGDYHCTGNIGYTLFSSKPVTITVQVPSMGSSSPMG

T1 sequence (P08637 17-208 F176V): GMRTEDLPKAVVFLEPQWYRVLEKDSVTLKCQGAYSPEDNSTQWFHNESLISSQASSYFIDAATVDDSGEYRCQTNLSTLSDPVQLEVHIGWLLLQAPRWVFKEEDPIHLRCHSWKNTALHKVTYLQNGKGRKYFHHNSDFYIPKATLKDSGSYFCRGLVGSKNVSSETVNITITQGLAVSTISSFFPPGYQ

B1: IL6R-AP002/IL6R-BP257/IL6R-L (antibody)
chain 1: QVQLQESGPGLVKPSETLSLTCAVSGHSISHDHAWSWVRQPPGEGLEWIGFISYSGITNYNPSLQGRVTISRDNSKNTLYLQMNSLRAEDTAVYYCARSLARTTAMDYWGEGTLVTVSSASTKGPSVFPLAPSSKSTSGGTAALGCLVKDYFPEPVTVSWNSGALTSGVHTFPAVLQSSGLYSLSSVVTVPSSSLGTQTYICNVNHKPSNTKVDKKVEPKSCDKTHTCPPCPAPDLLGDDSVFLFPPKPKDTLMISRTPEVTCVVVDVSDEDGEVKFNWYVDGVEVHNAKTKPREEQYNSTYRVVSVLTVLHQDWLNGKEYKCKVSNKALPRPIEKTISKAKGQPREPQVYTLPPSRKELTKNQVSLTCLVKGFYPSDIAVEWESNGQPENNYKTTPPVLDSDGSFFLYSKLTVDKSRWQQGNVFSCSVMHEALHNRYTQKSLSLSP
chain 2: QVQLQESGPGLVKPSETLSLTCAVSGHSISHDHAWSWVRQPPGEGLEWIGFISYSGITNYNPSLQGRVTISRDNSKNTLYLQMNSLRAEDTAVYYCARSLARTTAMDYWGEGTLVTVSSASTKGPEVFPLAPSSKSTSGGTAALGCLVKDYFPEPVTVSWNSGALTSGVHTFPAVLQSSGLYSLSSVVTVPSSSLGTQTYICNVNHKPSNTKVDKKVEPKSCDKTHTCPPCPAPDLLGDDSVFLFPPKPKDTLMISRTPEVTCVVVDVSDEDGEVKFNWYVDGVEVHNAKTKPREEQYNSTYRVVSVLTVLHQDWLNGKEYKCKVSNKALPRPIEKTISKAKGQPREPQVYTLPPSRDELTKNQVSLTCLVKGFYPSDIAVEWESNGQPENNYKTTPPVLDSDGSFFLYSKLTVDKSRWQQGNVFSCSVMHEALHNHYTQESLSLSP
chain 3: not shown
For the molecule B1, the Kd in test [1] was 14 µM.

B2: IL6R-AP009/IL6R-BP259/IL6R-L (antibody)
chain 1: QVQLQESGPGLVKPSETLSLTCAVSGHSISHDHAWSWVRQPPGEGLEWIGFISYSGITNYNPSLQGRVTISRDNSKNTLYLQMNSLRAEDTAVYYCARSLARTTAMDYWGEGTLVTVSSASTKGPSVFPLAPSSKSTSGGTAALGCLVKDYFPEPVTVSWNSGALTSGVHTFPAVLQSSGLYSLSSVVTVPSSSLGTQTYICNVNHKPSNTKVDKKVEPKSCDKTHTCPPCPAPDLLGDDSVFLFPPKPKDTLMISRTPEVTCVVVDVSDEDGEVKFNWYVDGVEVHNAKTKPREEQDNSTYRVVSVLTVLHQDWLNGKEYKCKVSNKALPRPIEKTISKAKGQPREPQVYTLPPSRKELTKNQVSLTCLVKGFYPSDIAVEWESNGQPENNYKTTPPVLDSDGSFFLYSKLTVDKSRWQQGNVFSCSVMHEALHNRYTQKSLSLSP
chain 2: QVQLQESGPGLVKPSETLSLTCAVSGHSISHDHAWSWVRQPPGEGLEWIGFISYSGITNYNPSLQGRVTISRDNSKNTLYLQMNSLRAEDTAVYYCARSLARTTAMDYWGEGTLVTVSSASTKGPDVFPLAPSSKSTSGGTAALGCLVKDYFPEPVTVSWNSGALTSGVHTFPAVLQSSGLYSLSSVVTVPSSSLGTQTYICNVNHKPSNTKVDKKVEPKSCDKTHTCPPCPAPDLLGDDSVFLFPPKPKDTLMISRTPEVTCVVVDVSDEDGEVKFNWYVDGVEVHNAKTKPREEQDNSTYRVVSVLTVLHQDWLNGKEYKCKVSNKALPRPIEKTISKAKGQPREPQVYTLPPSRDELTKNQVSLTCLVKGFYPSDIAVEWESNGQPENNYKTTPPVLDSDGSFFLYSKLTVDKSRWQQGNVFSCSVMHEALHNHYTQESLSLSP
chain 3: not shown
Turning to B2, the Kd in test [1] is 22 µM.

B3: IL6R-AP029/IL6R-BP407/IL6R-L (antibody)
chain 1: QVQLQESGPGLVKPSETLSLTCAVSGHSISHDHAWSWVRQPPGEGLEWIGFISYSGITNYNPSLQGRVTISRDNSKNTLYLQMNSLRAEDTAVYYCARSLARTTAMDYWGEGTLVTVSSASTKGPSVFPLAPSSKSTSGGTAALGCLVKDYFPEPVTVSWNSGALTSGVHTFPAVLQSSGLYSLSSVVTVPSSSLGTQTYICNVNHKPSNTKVDKKVEPKSCDKTHTCPPCPAPDLLGDDSVFLFPPKPKDTLMISRTPEVTCVVVDVSEEDGEVKFNWYVDGVEVHNAKTKPREEQDNSTYRVVSVLTVLHQDWLNGKEYKCKVSNKALPRPIEKTISKAKGQPREPQVYTLPPSRKELTKNQVSLTCLVKGFYPSDIAVEWESNGQPENNYKTTPPVLDSDGSFFLYSKLTVDKSRWQQGNVFSCSVMHEALHNRYTQKSLSLSP
chain 2: QVQLQESGPGLVKPSETLSLTCAVSGHSISHDHAWSWVRQPPGEGLEWIGFISYSGITNYNPSLQGRVTISRDNSKNTLYLQMNSLRAEDTAVYYCARSLARTTAMDYWGEGTLVTVSSASTKGPSVFPLAPSSKSTSGGTAALGCLVKDYFPEPVTVSWNSGALTSGVHTFPAVLQSSGLYSLSSVVTVPSSSLGTQTYICNVNHKPSNTKVDKKVEPKSCDKTHTCPPCPAPDLDGDDSVFLFPPKPKDTLMISRTPEVTCVVVDVSEEDGEVKFNWYVDGVEVHNAKTKPREEQDNSTYRVVSVLTVLHQDWLNGKEYKCKVSNKALPRPIEKTISKAKGQPREPQVYTLPPSRDELTKNQVSLTCLVKGFYPSDIAVEWESNGQPENNYKTTPPVLDSDGSFFLYSKLTVDKSRWQQGNVFSCSVMHEALHNHYTQESLSLSP
chain 3: not shown
For B3, the Kd in test [2] came out at 23 µM; in test [3] it was 8.9 µM.

B4: IL6R-AP002/IL6R-BP256/IL6R-L (antibody)
chain 1: QVQLQESGPGLVKPSETLSLTCAVSGHSISHDHAWSWVRQPPGEGLEWIGFISYSGITNYNPSLQGRVTISRDNSKNTLYLQMNSLRAEDTAVYYCARSLARTTAMDYWGEGTLVTVSSASTKGPSVFPLAPSSKSTSGGTAALGCLVKDYFPEPVTVSWNSGALTSGVHTFPAVLQSSGLYSLSSVVTVPSSSLGTQTYICNVNHKPSNTKVDKKVEPKSCDKTHTCPPCPAPDLLGDDSVFLFPPKPKDTLMISRTPEVTCVVVDVSDEDGEVKFNWYVDGVEVHNAKTKPREEQYNSTYRVVSVLTVLHQDWLNGKEYKCKVSNKALPRPIEKTISKAKGQPREPQVYTLPPSRKELTKNQVSLTCLVKGFYPSDIAVEWESNGQPENNYKTTPPVLDSDGSFFLYSKLTVDKSRWQQGNVFSCSVMHEALHNRYTQKSLSLSP
chain 2: QVQLQESGPGLVKPSETLSLTCAVSGHSISHDHAWSWVRQPPGEGLEWIGFISYSGITNYNPSLQGRVTISRDNSKNTLYLQMNSLRAEDTAVYYCARSLARTTAMDYWGEGTLVTVSSASTKGPDVFPLAPSSKSTSGGTAALGCLVKDYFPEPVTVSWNSGALTSGVHTFPAVLQSSGLYSLSSVVTVPSSSLGTQTYICNVNHKPSNTKVDKKVEPKSCDKTHTCPPCPAPDLLGDDSVFLFPPKPKDTLMISRTPEVTCVVVDVSDEDGEVKFNWYVDGVEVHNAKTKPREEQYNSTYRVVSVLTVLHQDWLNGKEYKCKVSNKALPRPIEKTISKAKGQPREPQVYTLPPSRDELTKNQVSLTCLVKGFYPSDIAVEWESNGQPENNYKTTPPVLDSDGSFFLYSKLTVDKSRWQQGNVFSCSVMHEALHNHYTQESLSLSP
chain 3: not shown
Molecule B4 came in with a dissociation constant (Kd) in test [1] of 17 µM.

B5: IL6R-AP009/IL6R-BP260/IL6R-L (antibody)
chain 1: QVQLQESGPGLVKPSETLSLTCAVSGHSISHDHAWSWVRQPPGEGLEWIGFISYSGITNYNPSLQGRVTISRDNSKNTLYLQMNSLRAEDTAVYYCARSLARTTAMDYWGEGTLVTVSSASTKGPSVFPLAPSSKSTSGGTAALGCLVKDYFPEPVTVSWNSGALTSGVHTFPAVLQSSGLYSLSSVVTVPSSSLGTQTYICNVNHKPSNTKVDKKVEPKSCDKTHTCPPCPAPDLLGDDSVFLFPPKPKDTLMISRTPEVTCVVVDVSDEDGEVKFNWYVDGVEVHNAKTKPREEQDNSTYRVVSVLTVLHQDWLNGKEYKCKVSNKALPRPIEKTISKAKGQPREPQVYTLPPSRKELTKNQVSLTCLVKGFYPSDIAVEWESNGQPENNYKTTPPVLDSDGSFFLYSKLTVDKSRWQQGNVFSCSVMHEALHNRYTQKSLSLSP
chain 2: QVQLQESGPGLVKPSETLSLTCAVSGHSISHDHAWSWVRQPPGEGLEWIGFISYSGITNYNPSLQGRVTISRDNSKNTLYLQMNSLRAEDTAVYYCARSLARTTAMDYWGEGTLVTVSSASTKGPEVFPLAPSSKSTSGGTAALGCLVKDYFPEPVTVSWNSGALTSGVHTFPAVLQSSGLYSLSSVVTVPSSSLGTQTYICNVNHKPSNTKVDKKVEPKSCDKTHTCPPCPAPDLLGDDSVFLFPPKPKDTLMISRTPEVTCVVVDVSDEDGEVKFNWYVDGVEVHNAKTKPREEQDNSTYRVVSVLTVLHQDWLNGKEYKCKVSNKALPRPIEKTISKAKGQPREPQVYTLPPSRDELTKNQVSLTCLVKGFYPSDIAVEWESNGQPENNYKTTPPVLDSDGSFFLYSKLTVDKSRWQQGNVFSCSVMHEALHNHYTQESLSLSP
chain 3: not shown
For the molecule B5, in test [1], the affinity, expressed as Kd, was 16 µM.

B6: IL6R-BP404/IL6R-L (antibody)
chain 1: QVQLQESGPGLVKPSETLSLTCAVSGHSISHDHAWSWVRQPPGEGLEWIGFISYSGITNYNPSLQGRVTISRDNSKNTLYLQMNSLRAEDTAVYYCARSLARTTAMDYWGEGTLVTVSSASTKGPSVFPLAPSSKSTSGGTAALGCLVKDYFPEPVTVSWNSGALTSGVHTFPAVLQSSGLYSLSSVVTVPSSSLGTQTYICNVNHKPSNTKVDKKVEPKSCDKTHTCPPCPAPDYLGDDSVFLFPPKPKDTLMISRTPEVTCVVVDVSEEDGEVKFNWYVDGVEVHNAKTKPREEQDNSTYRVVSVLTVLHQDWLNGKEYKCKVSNKALPRPIEKTISKAKGQPREPQVYTLPPSRDELTKNQVSLTCLVKGFYPSDIAVEWESNGQPENNYKTTPPVLDSDGSFFLYSKLTVDKSRWQQGNVFSCSVMHEALHNHYTQESLSLSP
chain 2: not shown
As to B6, the Kd in test [2] turned out to be 33 µM; in test [3], 3.4 µM.

B7: IL6R-AP029/IL6R-BP410/IL6R-L (antibody)
chain 1: QVQLQESGPGLVKPSETLSLTCAVSGHSISHDHAWSWVRQPPGEGLEWIGFISYSGITNYNPSLQGRVTISRDNSKNTLYLQMNSLRAEDTAVYYCARSLARTTAMDYWGEGTLVTVSSASTKGPSVFPLAPSSKSTSGGTAALGCLVKDYFPEPVTVSWNSGALTSGVHTFPAVLQSSGLYSLSSVVTVPSSSLGTQTYICNVNHKPSNTKVDKKVEPKSCDKTHTCPPCPAPDLLGDDSVFLFPPKPKDTLMISRTPEVTCVVVDVSEEDGEVKFNWYVDGVEVHNAKTKPREEQDNSTYRVVSVLTVLHQDWLNGKEYKCKVSNKALPRPIEKTISKAKGQPREPQVYTLPPSRKELTKNQVSLTCLVKGFYPSDIAVEWESNGQPENNYKTTPPVLDSDGSFFLYSKLTVDKSRWQQGNVFSCSVMHEALHNRYTQKSLSLSP
chain 2: QVQLQESGPGLVKPSETLSLTCAVSGHSISHDHAWSWVRQPPGEGLEWIGFISYSGITNYNPSLQGRVTISRDNSKNTLYLQMNSLRAEDTAVYYCARSLARTTAMDYWGEGTLVTVSSASTKGPSVFPLAPSSKSTSGGTAALGCLVKDYFPEPVTVSWNSGALTSGVHTFPAVLQSSGLYSLSSVVTVPSSSLGTQTYICNVNHKPSNTKVDKKVEPKSCDKTHTCPPCPAPDLTGDDSVFLFPPKPKDTLMISRTPEVTCVVVDVSEEDGEVKFNWYVDGVEVHNAKTKPREEQDNSTYRVVSVLTVLHQDWLNGKEYKCKVSNKALPRPIEKTISKAKGQPREPQVYTLPPSRDELTKNQVSLTCLVKGFYPSDIAVEWESNGQPENNYKTTPPVLDSDGSFFLYSKLTVDKSRWQQGNVFSCSVMHEALHNHYTQESLSLSP
chain 3: not shown
In the case of B7, the dissociation constant Kd in test [2] was 21 µM; in test [3] it was 5.1 µM.
